# Experiment: soluble fraction after stress (log2 fold change); higher = more stays soluble; pooled small domains, quantitative proteomics
# Settings: stress: pH 4
# In short: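 Aggregation propensity is read out as the fold change in how much of each domain remains soluble after acid stress. The custom small-domain libraries were pooled, held at pH 4 and analysed with high-throughput quantitative proteomics. On the log2 scale used, higher values mean more of the domain stayed soluble.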
row,Sequence,soluble fraction (log2)
1,HMITTEEVLNRIRKKVDHPATIRELQKALSIADDDRHRFRRRIRTLVASGALVRIRGNRYGLPSK,0.0429
2,HMLRRNQVQSQVIPRENGSYVVELQLRDDVDSILRLELTAATEAMARDLADRFRQDPEGVYTRLLSALY,-1.57
3,HMDSGVPEWLASALRASPVAWKNFLALPPSHQRRYVGWISSARRDETRNRRIAEAISLLVEHKRLG,0.0211
4,HMNLLGDNIRKLRLEKGLGLNEVARLANITGGYLSSIENNKRTNVGTEILESIAKAIGVSVSDFYL,-0.0496
5,HMIFNENLKSAREKKGLSQKEVAEAIGVAKSTYSLYESGNREPNVQTIKRIADVLNVSADVLLGL,0.332
6,HMENRREYQKAIDYLSDQIRAGTLTVGSRLPTERAIAEALGISRNSTREALRTMENMGMIESKQGSGHYLT,-0.0814
7,HMEITSSNELKKMISNLINSENKNNPISDSNIVEKLKENDFLVARRTVAKYRKLLGIKNVNQRKE,0.25
8,HMSRQREWIYDYIQSHPDRHMSVEEIYEGLKAENREVSVATVYRNLKILQDENRIASLMLESGKQVFDK,-0.0969
9,HMTAQLSITLNGETRRAAAGSIADLVRSLELDPAKVAVERNGLIVPRSTLAEVALGDGDVLEIVHFV,-0.4
10,HMGEVPVETKDGIKVHVHTVDKSQTAYGISRLYNITLNELYESNPEAKLELSIGQKLYFPVK,-0.426
11,HMNVNSMIGKEGRVIEDIDNFNETGRIIVDGMEWTARAVNEQSITSGQKVVIREIQGVKAMVVPM,-0.299
12,HMEAPWQEIKRQVMDGLDMSREFTDEELRERIALAVRSYSKEKLLSLKVRESYEEQIFNSFR,-0.261
13,HMNSEPKTKLQEIAQERGLAAPVYETTHTGPDHDRIFSASVTVGDVVAAGEARSRKGAESEAAIAAIKALG,0.155
14,HMVKLDDLTGQDKASAEAAISNLGLKYSEQQEYSDEIEEGKVTRTDPGAGSTSLKAGDTVTVYISRGPE,-0.348
15,HMSLTTKSVEETLGITRQTLHNWIKEGLLPAPKKDFRNWYIWSDEDLENLRNIIEQKTLINNKKQAV,-0.0603
16,HMDSGLLSAREREVAGLVLSGMTYAEIGEAIFISPRTAEHHIARIRRRLGATSRTDLIAKLQAIVGID,-1.42
17,HMLLELINLQVKILENEELKIIGKVIDLENEKNNLLVIELLKDQKKVLVPFVKEIVPLIDIKNNFIMINPP,-0.703
18,HMEDIAAIAQRIQGLRDIVGISVEEMAKALDISEQEYREYEKGETDFSFSFLYTVANVLGINITDLI,-1.56
19,HMNMFGIQRRNHLLSLLQEKKSITVQEAAVIFEVAEETIRRDFRTMEGQGLIVRTHGGALLADD,-1.14

row,Sequence,soluble fraction (log2)
1,HMREVDKRYYKINIAGTDRIFTNVYRVGDRYSAYEADKNGKPGKFLYSLSQAEIDRAVISGSFDFK,0.121
2,HMESKDIRYVQLQTVSPEEVLQALALIMPRSDVYVEPTGKLVVLHGSKETLDRAEELILALDNAV,-0.641
3,HMSASSEALKTAVRKVLLNNRMTQDRMARDAGLSGSALSQWLHGKYQGDVPALEGRLAAWLADTQAS,0.132
4,HMAELNLPVRKIGGEDYYYRQVKKKETIYGISKELGITKEDIIKYNPSVASGLQRNQILYFPVKDFK,0.322
5,HMNAFEIYPNPASNLIRIDAEFTVAKIFSQTGNLIQTSTTKEIDVYNLANGIYFVKLDDSPSMVKFVIN,-1.09
6,HMKIVQHQLQLPVHVAGKFKGMFYKSDFVMSEDYDDDGNMILAVRLPLVDWNKFLKRTDNELSQYIKVTP,-1.53
7,HMQMTKSEFLDALRRALNGNMAAASVDDNIRFYDSYFYTEETKGRSEAEILSELGDPRILARTLIDAAD,-0.382
8,HMRSAKLPYSEFLKLVDTDKVNDVSIVGRTISGHLDDGSKFSTYTPPNDPNIIEKLSSHNVIINSAPE,0.337
9,HMKVTGSVQKKKGYYYIVVRLPTKNGTQYEQKQKWFNTKLKATPRNKTAAQVILAEKLTEYGGIV,≥ 0.43
10,HMEQVSDPALLERYAKEVVAASPKAVADYQAGNAKAFQALVGQMMKRTKGKGDPALIREILQKL,0.143
11,HMEQLESAVASRTLIGQAQGVIMERYGLSAPNAFSVLSRISQDSNTKLAEVAQQIVATRRIPG,0.0508
12,HMSTMVEIPNVVGMTIKEAKEALGNLGLSISKISGSNEDSAIVTEVSPAPGSSVKRDESITLVGQPK,0.12
13,HMINVGYKFKQIRENAGLTLKQVSAMSGLSVSFISQIERGVVDPSWSSLKKISAALNIKLKDLF,-0.449
14,HMDDATDLPYQEFRTQVSDGQVKIAQFNNNTGKITFESISGDKFKTSGPLELSSDDERLFLENIEDFKFFT,-1.1
15,HMLQARKFTHIQGYEFEAEFLRTNGEFVELQDPQGRKKWFPISNFIQDDKDFIKEQAGNLSS,-0.903
16,HMDNLSQMQERILEFIIRSKDQSGYTPSLREIGDEVGLKAVSSVKYQLEQLKDAHYISFDANTARAIRVLI,-0.438
17,HMNREDYIKAIFKIAEREGEASNQRIADSLGVSRASASEMVKKLIQEGFVVAEGRQLSLSAEGERIA,-0.32
18,HMPLTPATADAGRFVKQDRKYIRLLAKRYNFTHGDIKSEIDRVSAVLSSNGIDRVPLFLYKEYLEQYLAG,-0.924
19,HMLFSEKLKQAMQDLHLNQIQVVGLTGKSKGSISQYISGKQVPSEATQRDIAISLGLEENYFSKK,0.216
